Source: patent US20210093695A1, “Method” (APITOPE TECHNOLOGY (BRISTOL) LIMITED, priority 2017, published 2021)

Experiments:
HLA-DR2 = HLA-DR2 (Homo sapiens, UniProt P01903+P01911); experiment: HLA-DR2 binding of MBP peptides
HLA-DQ6 = HLA-DQ6 binding of MBP peptides; design: species or system human
[1] = test system: double-transgenic (DTg; human HLA-DR15/MBP-specific T-cell receptor) humanized mice; experiment: SCH-induced EAE in double-transgenic humanized mice, clinical score; assay type: in vivo, mouse; details: once weekly from Day 0; ATX-MS-1467 100 μg/dose, MBP82-98 12 μg or 100 μg/dose
Procedure: In double-transgenic (DTg; human HLA-DR15/MBP-specific T-cell receptor) ‘humanized’ mice, EAE was induced using an emulsification of spinal cord homogenate (SCH) and CFA on Day 0. Mice also received a pertussis toxin injection on Days 0 and 2.
Throughout the study, neurological deficits were measured using a standardized clinical score scale: 0=no clinical signs, 1=limp tail, 2=impaired righting reflex, 3=partial hind limb paralysis, 4=complete hind limb paralysis, 5=moribund/death.
If animals reached a score of 4 they were euthanized to reach a humane endpoint.
[…] were treated prophylactically either with subcutaneous (sc) phosphate-buffered saline (PBS) vehicle or ATX-MS-1467 (n=10 per treatment group) starting 3 weeks before EAE induction. […]
ATX-MS-1467 was tested head-to-head with MBP82-98 and GA. […] For both compounds, the human equivalent dose (HED) was calculated based on body surface area: MBP82-98=12 μg/dose and GA=75 μg (3.75 mg/kg)/dose.
Statistical analyses for significant differences on clinical scores by treatment over time and cumulative clinical scores (area under the curve) were performed using Kruskal-Wallis with Dunn's post hoc analysis of comparisons. Disease onset was analyzed by Kaplan-Meier curve and significance was determined using the log-rank (Mantel-Cox) test. Cellular brain infiltrates were analyzed by Student's t-test. […]

DR2/Ob1Het/Het mice = experiment: Serum cytokine levels after s.c. treatment/challenge (Milliplex); assay type: in vivo, mouse
Procedure: Double transgenic heterozygous mice, referred to here as DR2/Ob1Het/Het, were used for these studies. These mice express human leukocyte antigen (HLA) isotypes DRA*0101 and DRB1*1501 under the mouse major histocompatibility […] promoter and the MBP84-102-specific TCR (Ob.1A12) expressed under mouse TCRα and β promoter/enhancer elements.
DR2/Ob1Het/Het mice were treated and/challenged by a single or multiple subcutaneous (s.c.) injections of 100 μg of ATX-MS-1467 or 25 μg of a HLA binding protein (HLAbp) unrelated to EAE and/or 30-1000 μg of myelin basic protein (MBP, Sigma, M1891). Treatment paradigms varied between studies and groups (see specifics in each study). Chronic treatment with ATX-MS-1467 or with HLAbp followed a 3× weekly regimen.
Cytokine levels were quantified in serum of DR2/Ob1Het/Het mice at different time points using a Milliplex MAP mouse Cytokine/Chemokine magnetic kit (MCYTOMAG-70-PMX).

Chain of HLA-DR2 (P01903 26-254): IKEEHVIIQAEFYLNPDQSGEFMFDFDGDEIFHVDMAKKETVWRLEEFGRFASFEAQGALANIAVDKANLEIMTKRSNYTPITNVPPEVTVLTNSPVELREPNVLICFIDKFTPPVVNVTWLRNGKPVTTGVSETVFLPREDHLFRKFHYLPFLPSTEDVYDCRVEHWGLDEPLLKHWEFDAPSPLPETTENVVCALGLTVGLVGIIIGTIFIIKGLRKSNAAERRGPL
Chain of HLA-DR2 (P01911 30-266): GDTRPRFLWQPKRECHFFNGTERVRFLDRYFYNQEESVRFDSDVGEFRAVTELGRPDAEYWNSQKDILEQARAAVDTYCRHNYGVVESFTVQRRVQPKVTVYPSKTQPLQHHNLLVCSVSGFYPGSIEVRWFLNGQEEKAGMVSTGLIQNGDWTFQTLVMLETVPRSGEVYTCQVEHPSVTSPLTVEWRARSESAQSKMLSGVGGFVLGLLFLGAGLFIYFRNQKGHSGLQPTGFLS

Molecule	HLA-DR2 binding (HLA-DR2)	HLA-DQ6 binding (HLA-DQ6)	also measured
H-Glu-Asn-Pro-Val-Val-His-Phe-Phe-Lys-Asn-Ile-Val-Thr-Pro-Arg-Thr-Pro-NH2 (H-ENPVVHFFKNIVTPRTP-NH2) [MBP 83-99]	HLA-DR2 binding	–	–
H-Pro-Arg-His-Arg-Asp-Thr-Gly-Ile-Leu-Asp-Ser-Ile-Gly-Arg-Phe-NH2 (H-PRHRDTGILDSIGRF-NH2) [MBP 30-44]	–	HLA-DQ6 binding	–
H-Ala-Ser-Asp-Tyr-Lys-Ser-Ala-His-Lys-Gly-Phe-Lys-Gly-Val-Asp-NH2 (H-ASDYKSAHKGFKGVD-NH2) [MBP 131-145]	–	HLA-DQ6 binding	–
MBP82-98: 17-amino acid synthetic peptide identical to MBP (dirucotide)	–	–	disease severity vs vehicle [1]: did not show significant effects
H-Gly-Phe-Lys-Gly-Val-Asp-Ala-Gln-Gly-Thr-Leu-Ser-Lys-Ile-Phe-NH2 (H-GFKGVDAQGTLSKIF-NH2) [MBP 140-154]	HLA-DR2 binding	–	–
MBP: myelin basic protein (MBP, Sigma, M1891), full length (protein, UniProt P02686 1-304, looked up) Myelin basic protein: MGNHAGKRELNAEKASTNSETNRGESEKKRNLGELSRTTSEDNEVFGEADANQNNGTSSQDTAVTDSKRTADPKNAWQDAHPADPGSRPHLIRLFSRDAPGREDNTFKDRPSESDELQTIQEDSAATSESLDVMASQKRPSQRHGSKYLATASTMDHARHGFLPRHRDTGILDSIGRFFGGDRGAPKRGSGKDSHHPARTAHYGSLPQKSHGRTQDENPVVHFFKNIVTPRTPPPSQGKGRGLSLSRFSWGAEGQRPGFGYGGRASDYKSAHKGFKGVDAQGTLSKIFKLGGRDSRSGSPMARR	–	–	dose dependence of serum cytokine secretion (DR2/Ob1Het/Het mice; 2 h after s.c. injection, 30-1000 μg): dose-dependent secretion of cytokines; cytokine secretion in the blood after acute treatment (DR2/Ob1Het/Het mice; single s.c. injection, FIG. 4 (MBP), FIG. 5 (ATX-MS-1467 100 μg/mouse)): induces the secretion of both pro and anti-inflammatory cytokines
